Values of other authors as cited in patent US20240285756A1, “METHOD AND COMPOSITION FOR INDUCING TOLERANCE” (ZELARION MALTA LIMITED, priority 2021, published 2024).

Biological target: T1, CD2 (Homo sapiens, UniProt P06729)
T1 sequence (P06729 25-351): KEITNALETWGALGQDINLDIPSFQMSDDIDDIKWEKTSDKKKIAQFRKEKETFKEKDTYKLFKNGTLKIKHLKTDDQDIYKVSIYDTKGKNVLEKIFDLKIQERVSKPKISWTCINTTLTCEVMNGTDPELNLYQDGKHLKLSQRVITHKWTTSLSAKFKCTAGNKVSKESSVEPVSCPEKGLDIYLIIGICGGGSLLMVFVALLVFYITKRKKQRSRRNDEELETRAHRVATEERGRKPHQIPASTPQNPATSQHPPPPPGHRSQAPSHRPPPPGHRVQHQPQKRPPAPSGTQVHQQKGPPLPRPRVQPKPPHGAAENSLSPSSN
Conditions: literature value, Branco et al., Transplantation 1999; assay not further specified

- IC50: ~1 nM
B1: siplizumab: humanized IgG1 kappa monoclonal antibody against human CD2; humanized version of rat antibody BTI-322 (antibody, V domains shown)
VH: QVQLVQSGAEVQRPGASVKVSCKASGYIFTEYYMYWVRQAPGQGLELVGRIDPEDGSIDYVEKFKKKVTLTADTSSSTAYMELSSLTSDDTAVYYCARGKFNYRFAYWGQGTLVTVSS
VL: DVVMTQSPPSLLVTLGQPASISCRSSQSLLHSSGNTYLNWLLQRPGQSPQPLIYLVSKLESGVPDRFSGSGSGTDFTLKISGVEAEDVGVYYCMQFTHYPYTFGQGTKLEIK
